Consider five molecules from patent publication US10590397B2 (priority 2017, dated 2020).

Values joined by “and” are separate entries in the source; they are usually repeats but may differ in a detail not shown here. Equal entries are not always repeated. Where two headings read alike, the source gives them in different places.

For series [1] the following is noted: DON as substrate; Michlmayr, et al., 2015; cited from earlier work.
Series [2] is classed as biochemical, Fusarium.
Series [3] is classed as biochemical, Fusarium. This is another data set of the same source.

B1: Os79 (protein, listed as Oryza sativa)
chain: MGSMSTPAASANGGQVLLLPFPAAQGHTNPMLQFGRRLAYHGLRPTLVTTRYVLSTTPPPGDPFRVAAISDGFDDASGMAALPDPGEYLRTLEAHGARTLAELLLSEARAGRPARVLVYDPHLPWARRVARAAGVATAAFLSQPCAVDLIYGEVCARRLALPVTPTDARGLYARGVLGVELGPDDVPPFVAAPELTPAFCEQSIEQFAGLEDDDDVLVNSFSDLEPKEAAYMESTWRAKTIGPSLPSFYLDDGRLRSNTAYGFNLFRSTVPCMEWLDKQPPRSVVLVSYGTVSTFDVAKLEELGNGLCNSGKPFLWVVRSNEEHKLSVQLRKKCEKRGLIVPFCPQLEVLAHKATGCFLSHCGWNSTLEAIVNGVPLVAMPHWADQPTISKYVESLWGMGVRVQLDKSGILQREEVERCIREVMDGDRKEDYRRNATRLMKKAKESMQEGGSSDKNIAEFAAKYSN
As for B1, in series [1], the Km – broadly, the concentration of substrate that gives half-maximal velocity – was 230 µM; the kcat (commonly the number of substrate molecules converted per active site and unit of time at saturation) was 0.57 s⁻¹.

B2: Os79 H122A/L123G (protein, listed as Oryza sativa)
chain: MGSMSTPAASANGGQVLLLPFPAAQGHTNPMLQFGRRLAYHGLRPTLVTTRYVLSTTPPPGDPFRVAAISDGFDDASGMAALPDPGEYLRTLEAHGARTLAELLLSEARAGRPARVLVYDPAGPWARRVARAAGVATAAFLSQPCAVDLIYGEVCARRLALPVTPTDARGLYARGVLGVELGPDDVPPFVAAPELTPAFCEQSIEQFAGLEDDDDVLVNSFSDLEPKEAAYMESTWRAKTIGPSLPSFYLDDGRLRSNTAYGFNLFRSTVPCMEWLDKQPPRSVVLVSYGTVSTFDVAKLEELGNGLCNSGKPFLWVVRSNEEHKLSVQLRKKCEKRGLIVPFCPQLEVLAHKATGCFLSHCGWNSTLEAIVNGVPLVAMPHWADQPTISKYVESLWGMGVRVQLDKSGILQREEVERCIREVMDGDRKEDYRRNATRLMKKAKESMQEGGSSDKNIAEFAAKYSN
Regarding B2, the Michaelis constant (Km) in series [2] (23° C.) was 2500 µM and 2510 µM; in series [3], 512 µM.

B3: Os79 H122A/L123A (protein, listed as Oryza sativa)
chain: MGSMSTPAASANGGQVLLLPFPAAQGHTNPMLQFGRRLAYHGLRPTLVTTRYVLSTTPPPGDPFRVAAISDGFDDASGMAALPDPGEYLRTLEAHGARTLAELLLSEARAGRPARVLVYDPAAPWARRVARAAGVATAAFLSQPCAVDLIYGEVCARRLALPVTPTDARGLYARGVLGVELGPDDVPPFVAAPELTPAFCEQSIEQFAGLEDDDDVLVNSFSDLEPKEAAYMESTWRAKTIGPSLPSFYLDDGRLRSNTAYGFNLFRSTVPCMEWLDKQPPRSVVLVSYGTVSTFDVAKLEELGNGLCNSGKPFLWVVRSNEEHKLSVQLRKKCEKRGLIVPFCPQLEVLAHKATGCFLSHCGWNSTLEAIVNGVPLVAMPHWADQPTISKYVESLWGMGVRVQLDKSGILQREEVERCIREVMDGDRKEDYRRNATRLMKKAKESMQEGGSSDKNIAEFAAKYSN
As for B3, in series [3], the Km turned out to be 926 µM. Besides, in series [3] (23° C.), the kcat is 1.6 s⁻¹.

B4: Os79 Q202A (protein, listed as Oryza sativa)
chain: MGSMSTPAASANGGQVLLLPFPAAQGHTNPMLQFGRRLAYHGLRPTLVTTRYVLSTTPPPGDPFRVAAISDGFDDASGMAALPDPGEYLRTLEAHGARTLAELLLSEARAGRPARVLVYDPHLPWARRVARAAGVATAAFLSQPCAVDLIYGEVCARRLALPVTPTDARGLYARGVLGVELGPDDVPPFVAAPELTPAFCEASIEQFAGLEDDDDVLVNSFSDLEPKEAAYMESTWRAKTIGPSLPSFYLDDGRLRSNTAYGFNLFRSTVPCMEWLDKQPPRSVVLVSYGTVSTFDVAKLEELGNGLCNSGKPFLWVVRSNEEHKLSVQLRKKCEKRGLIVPFCPQLEVLAHKATGCFLSHCGWNSTLEAIVNGVPLVAMPHWADQPTISKYVESLWGMGVRVQLDKSGILQREEVERCIREVMDGDRKEDYRRNATRLMKKAKESMQEGGSSDKNIAEFAAKYSN
As for B4, in series [2], the “KM value compared to WT Os79” value is “no significant difference”.

B5: Os79 A384S (protein, listed as Oryza sativa)
chain: MGSMSTPAASANGGQVLLLPFPAAQGHTNPMLQFGRRLAYHGLRPTLVTTRYVLSTTPPPGDPFRVAAISDGFDDASGMAALPDPGEYLRTLEAHGARTLAELLLSEARAGRPARVLVYDPHLPWARRVARAAGVATAAFLSQPCAVDLIYGEVCARRLALPVTPTDARGLYARGVLGVELGPDDVPPFVAAPELTPAFCEQSIEQFAGLEDDDDVLVNSFSDLEPKEAAYMESTWRAKTIGPSLPSFYLDDGRLRSNTAYGFNLFRSTVPCMEWLDKQPPRSVVLVSYGTVSTFDVAKLEELGNGLCNSGKPFLWVVRSNEEHKLSVQLRKKCEKRGLIVPFCPQLEVLAHKATGCFLSHCGWNSTLEAIVNGVPLVAMPHWSDQPTISKYVESLWGMGVRVQLDKSGILQREEVERCIREVMDGDRKEDYRRNATRLMKKAKESMQEGGSSDKNIAEFAAKYSN
B5: the “KM value compared to WT Os79” value in series [2] is “similar”.
